Data on 23 sequences can be found in the Immune Epitope Database (IEDB).

Among the targets are HLA-A*02:02; HLA-A*02:01; HLA-A*02:06; HLA-A*02:03; HLA-A*68:02.
Common to all, as to test: IEDB peptide-MHC binding, purified MHC/competitive/radioactivity; ≥ and ≤ were set here for values at or beyond the usual limits of such assays
The mark [1] stands for this setting: source organism: Vaccinia virus WR.

NMDWRSLTQV: the IC50 (as a rule, the concentration needed to halve the response being measured) turned out to be 100 nM in the assay with HLA-A*02:02 (setting [1]); 4.2 nM with HLA-A*02:01 (setting [1]); 1.7 nM in the assay with HLA-A*02:06 (setting [1]); 17 nM with HLA-A*02:03 (setting [1]); 826 nM with HLA-A*68:02 (setting [1]).
On the same counts, the results for LIAGIILLIL are 141 nM, 540 nM, 345 nM, 680 nM and 143 nM.
On the same counts, the results for TTFITVLTSV are 1120 nM, 271 nM, 166 nM, 16 nM and 15 nM.
As for SIISLFYTFA, the IC50 in the assay with HLA-A*02:02 (setting [1]) was determined as 111 nM; with HLA-A*02:01 (setting [1]), 205 nM; with HLA-A*02:06 (setting [1]) it was 94 nM; with HLA-A*02:03 (setting [1]) it was 28 nM; in the assay with HLA-A*68:02 (setting [1]), 51 nM.
RTNDLTALL: the IC50 with HLA-A*02:02 (setting [1]) came to 3.7 nM; in the assay with HLA-A*02:01 (setting [1]), 357 nM; with HLA-A*02:06 (setting [1]), 119 nM; with HLA-A*02:03 (setting [1]), 7.2 nM; in the assay with HLA-A*68:02 (setting [1]), 13 nM.
On to TIAHINTLI, for which the IC50 with HLA-A*02:02 (setting [1]) amounted to 21 nM; in the assay with HLA-A*02:01 (setting [1]), 255 nM; with HLA-A*02:06 (setting [1]) it was 571 nM; with HLA-A*02:03 (setting [1]) it was 20 nM; with HLA-A*68:02 (setting [1]), 129 nM.
On the same counts, the results for MICCDSRIVV are 665 nM, 25 nM, 52 nM, 392 nM and 27 nM.
Take FLAHLQWFA: the IC50 stood at 0.1 nM with HLA-A*02:02 (source organism: SARS-CoV1); 0.1 nM with HLA-A*02:01 (source organism: SARS-CoV1); 0.57 nM with HLA-A*02:06 (source organism: SARS-CoV1); 0.21 nM with HLA-A*02:03 (source organism: SARS-CoV1); 17 nM in the assay with HLA-A*68:02 (source organism: SARS-CoV1).
As to YLYNKYSFKL, the IC50 with HLA-A*02:02 (setting [1]) was 0.11 nM; with HLA-A*02:01 (setting [1]) it was 0.078 nM; with HLA-A*02:06 (setting [1]), 0.14 nM; with HLA-A*02:03 (setting [1]), 0.035 nM; with HLA-A*68:02 (setting [1]), 4.8 nM.
On the same counts, the results for KASTISWMM are 429 nM, 1410 nM, 797 nM, 556 nM and 2940 nM.
The matching figures for ALVSDCASTI: 94 nM, 72 nM, 240 nM, 52 nM and 530 nM.
Take LIANIFTPLV: the IC50 was 0.4 nM with HLA-A*02:02 (source organism: SARS-CoV1); 12 nM in the assay with HLA-A*02:01 (source organism: SARS-CoV1); 16 nM with HLA-A*02:06 (source organism: SARS-CoV1); 13 nM with HLA-A*02:03 (source organism: SARS-CoV1); 19 nM in the assay with HLA-A*68:02 (source organism: SARS-CoV1).
On the same counts, the results for RMVSLVTSFL are 1.7 nM, 108 nM, 53 nM, 12 nM and 6.3 nM.
On to IVTFINDYA, for which the IC50 was 140 nM in the assay with HLA-A*02:02 (setting [1]); 4320 nM with HLA-A*02:01 (setting [1]); 1150 nM with HLA-A*02:06 (setting [1]); 2960 nM with HLA-A*02:03 (setting [1]); 84 nM with HLA-A*68:02 (setting [1]).
The matching figures for AAAATCALV: 15 nM, 41 nM, 12 nM, 9.1 nM and 12 nM.
Turning to QLMCQPILL, the IC50 with HLA-A*02:02 (source organism: SARS-CoV1) came to 3 nM; in the assay with HLA-A*02:01 (source organism: SARS-CoV1) it was 0.96 nM; with HLA-A*02:06 (source organism: SARS-CoV1), 77 nM; with HLA-A*02:03 (source organism: SARS-CoV1), 12 nM; with HLA-A*68:02 (source organism: SARS-CoV1), 140 nM.
On to RVTTELNIV, for which the IC50 is 2460 nM with HLA-A*02:02 (setting [1]); 818 nM with HLA-A*02:01 (setting [1]); 46 nM in the assay with HLA-A*02:06 (setting [1]); 116 nM with HLA-A*02:03 (setting [1]); 481 nM with HLA-A*68:02 (setting [1]).
The matching figures for TAYIGTSNWT: 1760 nM, 4150 nM, 220 nM, 1050 nM and 555 nM.
On to NVIGLIVIL, for which the IC50 with HLA-A*02:02 (setting [1]) came to 85 nM; with HLA-A*02:01 (setting [1]), 342 nM; with HLA-A*02:06 (setting [1]), 15 nM; with HLA-A*02:03 (setting [1]) it was 2400 nM; in the assay with HLA-A*68:02 (setting [1]), 0.17 nM.
On the same counts, the results for TLNTLITLIL are 150 nM, 45 nM, 826 nM, 7.1 nM and 1140 nM.
On the same counts, the results for YLRLYIILA are 8.3 nM, 190 nM, 4180 nM, 52 nM and 2720 nM.
As to HAFLCLFLL, the IC50 turned out to be 21 nM with HLA-A*02:02 (source organism: SARS-CoV1); 2.1 nM with HLA-A*02:01 (source organism: SARS-CoV1); 1.2 nM in the assay with HLA-A*02:06 (source organism: SARS-CoV1); 46 nM with HLA-A*02:03 (source organism: SARS-CoV1); 10 nM with HLA-A*68:02 (source organism: SARS-CoV1).
Turning to LLWFLTGTFV, the IC50 came out at 2.4 nM with HLA-A*02:02 (setting [1]); 0.32 nM with HLA-A*02:01 (setting [1]); 18 nM with HLA-A*02:06 (setting [1]); 9.2 nM with HLA-A*02:03 (setting [1]); 0.13 nM with HLA-A*68:02 (setting [1]).
